These results are taken from publication PMC4030845, “DeSUMOylation Controls Insulin Exocytosis in Response to Metabolic Signals” (Biomolecules, 2012).

This series concerns the molecule itself. Briefly: immunoblot of cell lysates after SDS-PAGE (dimer band); INS-1 832/13 cells infected with Ad-SENP1, incubated in KRBH buffer with or without H2O2 (legend: 200 µM; methods: 1 mM) for 30 min at 37 °C; lysed in Cell-Lytic-M with DTT; 8% SDS-PAGE; blot with anti-SENP1 (C12). (In western blotting, separated proteins are transferred to a membrane and probed.)

B1: SENP1 (sentrin-specific SUMO protease 1) (enzyme, UniProt Q9P0U3 1-644, looked up)
chain: MDDIADRMRMDAGEVTLVNHNSVFKTHLLPQTGFPEDQLSLSDQQILSSRQGHLDRSFTCSTRSAAYNPSYYSDNPSSDSFLGSGDLRTFGQSANGQWRNSTPSSSSSLQKSRNSRSLYLETRKTSSGLSNSFAGKSNHHCHVSAYEKSFPIKPVPSPSWSGSCRRSLLSPKKTQRRHVSTAEETVQEEEREIYRQLLQMVTGKQFTIAKPTTHFPLHLSRCLSSSKNTLKDSLFKNGNSCASQIIGSDTSSSGSASILTNQEQLSHSVYSLSSYTPDVAFGSKDSGTLHHPHHHHSVPHQPDNLAASNTQSEGSDSVILLKVKDSQTPTPSSTFFQAELWIKELTSVYDSRARERLRQIEEQKALALQLQNQRLQEREHSVHDSVELHLRVPLEKEIPVTVVQETQKKGHKLTDSEDEFPEITEEMEKEIKNVFRNGNQDEVLSEAFRLTITRKDIQTLNHLNWLNDEIINFYMNMLMERSKEKGLPSVHAFNTFFFTKLKTAGYQAVKRWTKKVDVFSVDILLVPIHLGVHWCLAVVDFRKKNITYYDSMGGINNEACRILLQYLKQESIDKKRKEFDTNGWQLFSKKSQEIPQQMNGSDCGMFACKYADCITKDRPINFTQQHMPYFRKRMVWEILHRKLL
notes: The adenovirus co-expresses GFP to identify infected cells; also called Ad-SENP1
In general, stoichiometry N refers to a count of units in the complex or per binding partner. For the protein B1, the “stoichiometry N” value is 2.
